Reference: patent publication US11708565B2, “HPPD variants and methods of use” (BASF AGRICULTURAL SOLUTIONS SEED US LLC, priority 2017, dated 2023)
Substitutions are numbered along the chain they refer to. Names may count otherwise.

B1: SG10: HPPD variant, SEQ ID NO:3; P268D, E335P, G336D, N337S, K339Y, A340R, I345M (protein)
chain: MADLYENPMGLMGFEFIEFASPTPGTLEPIFEIMGFTKVATHRSKNVHLYRQGEINLILNNEPNSIASYFAAEHGPSVCGMAFRVKDSQKAYNRALELGAQPIHIDTGPMELNLPAIKGIGGAPLYLIDRFGEGSSIYDIDFVYLEGVERNPVGAGLKVIDHLTHNVYRGRMVYWANFYEKLFNFREARYFDIKGEYTGLTSKAMSAPDGMIRIPLNEESSKGAGQIEEFLMQFNGEGIQHVAFLTDDLVKTWDALKKIGMRFMTAPDDTYYEMLEGRLPDHGEPVDQLQARGILLDGSSVEGDKRLLLQIFSETLMGPVFFEFIQRKGDDGFGPDSFYRLFESMERDQVRRGVLTAD
modifications: SG10 Mutant HPPD
notes: P268D, E335P, G336D, N337S, K339Y, A340R, I345M
B2: SG22: HPPD variant, SEQ ID NO:5; P268D, E335N, G336D, N337S, A340R, I345M (protein)
chain: B1 chain with P335N, Y339K
modifications: SG22 mutant HPPD
notes: P268D, E335N, G336D, N337S, A340R, I345M
B3: SG1: HPPD variant, SEQ ID NO:2; E335P, G336D, N337S, K339Y, A340R relative to SEQ ID NO:1 (protein)
chain: B1 chain with D268P, M345I
modifications: SG1 variant HPPD
B4: SG20: HPPD variant, SEQ ID NO:4; P268D, T270A, E335P, G336D, N337S, K339Y, A340R, S344Q, I345M (protein)
chain: B1 chain with T270A, S344Q
modifications: SG20 mutant HPPD
notes: P268D, T270A, E335P, G336D, N337S, K339Y, A340R, S344Q, I345M

Assays:
Cmpd. 1 = test: HitMix bacterial competition experiment against Cmpd. 1; format: cell-based; details: plasmid DNA of SG1, SG10 and reference proteins mixed, transformed and screened against Cmpd. 1
From the text: Screening variant libraries: In order to select improved variants, libraries of varying complexity were constructed in the pRANGER backbone. The first significant library to be screened was a multi-site saturation library, in which amino acid positions 338, 339, 340, and 341 were randomized with NNK codons, which use 32 codons to encode all 20 amino acids, for a theoretical complexity of 1.6×10^5 unique protein variants. Approximately 500,000 variants were transformed and screened in a bacterial competition assay against 5 mM Cmpd. 1 (2-chloro-3-(methylsulfanyl)-N-(1-methyl-1H-tetrazol-5-yl)-4-(trifluoromethyl)benzamide), and surviving clones were sequenced. After 3 rounds of subculturing, a single sequence was found and designated SG1 (Table 1). This sequence was used as the base gene for a 2nd generation library saturating positions 268, 270, 340, and 345. Similarly, these libraries were screened and SG10 (Table 1) was obtained from sequencing the surviving cultures at high concentrations of Cmpd. 1. To confirm that the hits had improved tolerance relative to K610, a “HitMix” competition experiment was carried out. Briefly, the plasmid DNA encoding each variant to be competed were mixed together in an Eppendorf tube, and then the DNA mixture was transformed and screened against Cmpd. 1 as previously described.

E. coli = test: Brown Color Assay (cell-based colorimetric assay of HPPD activity and tolerance to HPPD inhibitors); details: in the presence of 1 mM Cmpd. 1; for brown color formation: read at 440 nm
Procedure: A specific, although non-limiting, type of assay that can be used to evaluate the HPPD sequences of the invention is a colorimetric assay. In this assay, a YT-broth-type culture medium with 1% agarose, 5 mM L-Tyrosine and 42 mM Succinate, which contains the selection agent for the vector pSE420 (Invitrogen, Karlsruhe, Germany) or a modified version of pSE420 (pSE420(RI)NX) is poured into deep well plates. E. coli culture in the exponential growth phase which contains the vector pSE420-HPPDx (HPPDx means any gene coding for a putative HPPD enzyme/protein) is applied to each well.
Confirmation of activity by Brown Color Assay: To confirm that the designated hits retain HPPD activity and are tolerant to HPPD inhibitors, a cell-based colorimetric assay was employed. Wild-type E. coli strains lack the HPPD pathway; therefore expressing an HPPD enzyme in the presence of the substrate hydroxyphenylpyruvate (HPP) leads to the accumulation of the product, homogentisate (HGA). HGA is, in turn, auto-oxidized to a brown pigment, pyomelanin, which can be read at 440 nm. When cells are grown in the presence of an herbicide, brown color formation is inhibited with no effect on cell growth. The pRANGER vector is a low-copy, broad host range vector that allows some expression in E. coli.

Thorne soybean plants = test: Greenhouse herbicide spray application on T0 soybean plants; format: in vivo; details: single gene cassettes in Thorne soybean, T0 plants sprayed with Cmpd. 1
From the text: SG1, SG10, SG20, and SG22 were transformed as single gene cassettes into Thorne soybean plants and T0 plants were sprayed with Cmpd. 1 to measure herbicide tolerance. Each iteration of mutant identified in the bacterial screening assay performed better than the previous version (SG20>SG10>SG1).

Molecule | outcome of HitMix competition among variants (Cmpd. 1) | brown color formation relative to HPPD(evo41) (E. coli) | brown color formation (E. coli) | herbicide tolerance in planta (Thorne soybean plants)
B1 | emerged as the dominant sequence among all variants tested | improved relative to HPPD(evo41) | robust brown color formation | SG20>SG10>SG1
B2 | – | – | – | performed similarly to SG1
B3 | – | improved relative to HPPD(evo41) | robust brown color formation | SG20>SG10>SG1
B4 | – | – | – | SG20>SG10>SG1
